Experimental data taken from publication PMC9579124, “IKKβ binds NLRP3 providing a shortcut to inflammasome activation for rapid immune responses” (Signal Transduction and Targeted Therapy, 2022).

Biological target: T1, MST-Red-NLRP3 (UniProt Q96P20 1-1036, MST-Red label (position not given))
T1 construct: NLRP3 labelled with MST-Red for microscale thermophoresis
Assay: MST; in solution; 50 nM MST-Red-NLRP3 titrated against increasing concentrations of IKKβ; two independent titrations
Details: both partners purified

T1 sequence (Q96P20 whole entry): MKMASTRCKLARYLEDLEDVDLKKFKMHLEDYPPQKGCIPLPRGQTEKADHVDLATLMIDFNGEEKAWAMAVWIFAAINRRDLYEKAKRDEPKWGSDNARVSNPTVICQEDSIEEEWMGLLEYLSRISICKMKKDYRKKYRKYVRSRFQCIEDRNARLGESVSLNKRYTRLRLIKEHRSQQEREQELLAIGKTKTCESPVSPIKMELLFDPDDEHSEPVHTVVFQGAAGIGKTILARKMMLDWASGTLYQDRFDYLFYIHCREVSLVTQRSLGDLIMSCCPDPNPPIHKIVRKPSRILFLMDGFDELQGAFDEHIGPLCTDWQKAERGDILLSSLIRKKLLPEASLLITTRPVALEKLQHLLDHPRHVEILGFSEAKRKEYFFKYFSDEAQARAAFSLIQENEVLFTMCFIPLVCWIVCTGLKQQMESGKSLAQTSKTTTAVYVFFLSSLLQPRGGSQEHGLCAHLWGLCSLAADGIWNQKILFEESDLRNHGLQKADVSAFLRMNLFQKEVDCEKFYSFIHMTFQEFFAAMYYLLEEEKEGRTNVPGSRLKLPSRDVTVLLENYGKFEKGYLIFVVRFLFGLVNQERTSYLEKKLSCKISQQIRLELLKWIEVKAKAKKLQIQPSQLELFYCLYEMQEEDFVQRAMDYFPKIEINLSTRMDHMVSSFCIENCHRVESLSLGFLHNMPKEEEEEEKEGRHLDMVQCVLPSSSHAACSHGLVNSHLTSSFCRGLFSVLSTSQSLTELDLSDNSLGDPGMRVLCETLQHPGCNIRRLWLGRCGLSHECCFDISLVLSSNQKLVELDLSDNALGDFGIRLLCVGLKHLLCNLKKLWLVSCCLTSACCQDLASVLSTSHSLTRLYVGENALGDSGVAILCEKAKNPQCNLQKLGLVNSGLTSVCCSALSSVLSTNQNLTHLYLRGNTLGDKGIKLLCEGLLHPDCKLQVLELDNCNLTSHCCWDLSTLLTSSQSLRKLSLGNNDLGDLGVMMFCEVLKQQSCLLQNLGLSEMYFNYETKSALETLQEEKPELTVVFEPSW

B1: IKKβ used for microscale thermophoresis (enzyme, UniProt O14920 1-756, looked up)
chain: MSWSPSLTTQTCGAWEMKERLGTGGFGNVIRWHNQETGEQIAIKQCRQELSPRNRERWCLEIQIMRRLTHPNVVAARDVPEGMQNLAPNDLPLLAMEYCQGGDLRKYLNQFENCCGLREGAILTLLSDIASALRYLHENRIIHRDLKPENIVLQQGEQRLIHKIIDLGYAKELDQGSLCTSFVGTLQYLAPELLEQQKYTVTVDYWSFGTLAFECITGFRPFLPNWQPVQWHSKVRQKSEVDIVVSEDLNGTVKFSSSLPYPNNLNSVLAERLEKWLQLMLMWHPRQRGTDPTYGPNGCFKALDDILNLKLVHILNMVTGTIHTYPVTEDESLQSLKARIQQDTGIPEEDQELLQEAGLALIPDKPATQCISDGKLNEGHTLDMDLVFLFDNSKITYETQISPRPQPESVSCILQEPKRNLAFFQLRKVWGQVWHSIQTLKEDCNRLQQGQRAAMMNLLRNNSCLSKMKNSMASMSQQLKAKLDFFKTSIQIDLEKYSEQTEFGITSDKLLLAWREMEQAVELCGRENEVKLLVERMMALQTDIVDLQRSPMGRKQGGTLDDLEEQARELYRRLREKPRDQRTEGDSQEMVRLLLQAIQSFEKKVRVIYTQLSKTVVCKQKALELLPKVEEVVSLMNEDEKTVVRLQEKRQKELWNLLKIACSKVRGPVSGSPDSMNASRLSQPGQLMSQPSTASNSLPEPAKKSEELVAEAHNLCTLLENAIQDTVREQDQSFTALDWSWLQTEEEEHSCLEQAS
notes: IKKβ titrated in MST
Work on B1 yielded a Kd of 1430 ± 350 nM.
